In patent US20230076063:

Tests used:
[1] = test system: MamB DNA methyltransferase (Mycobacterium tuberculosis); experiment: cell_activity; settings: SMRT sequencing kinetics
[2] = test system: MamA DNA methyltransferase (Mycobacterium tuberculosis); experiment: cell_activity; settings: SMRT sequencing kinetics; mostly fully methylated reads

| Substance | activity (mean SMALR native score) [1] | activity (mean SMALR native score) [2] |
| --- | --- | --- |
| MamB target motif sites | 2.19 |  |
| CTGGAG (double strand) [MamA target motif sites] |  | 2.14 |
